# According to patent US20260234238A1 (GEOVISTA, published 2026):
# “And” between values parts separate entries of the source, which are not always exact repeats. Identical values can stand only once.
# T1: recombinant histidine-tagged canine interleukin-13 (cIL-13) (canine, UniProt Q9N0W9 19-131, N-linked glycans attached to asparagine residues at positions 38, 48, 56, and 71)
# T1 sequence: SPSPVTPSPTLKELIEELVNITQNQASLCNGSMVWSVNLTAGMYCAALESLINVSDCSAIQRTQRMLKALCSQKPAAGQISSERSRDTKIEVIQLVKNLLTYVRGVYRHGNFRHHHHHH
# B1: 32A10-#20 mouse monoclonal antibody (antibody, V domains shown)
# VH: EVQLQQSGPELVKPGASVKVSCKTSGYSFTDYPIYWVRQSHGESLEWIGYIDPYNGGTTYNQNFKDKATLTVDKSSSTAFMHLNSLTSEDSAVYFCATAVVATDVMENWGQGTSVTVSS
# VL: DIVLTQSQKFMSTSVGDRVSITCKASQNVRNAVAWFQQKPGQSPKALIYLASNRYTGVPDHFTGSGSGTDFTLTISNVQSEDLADYFCLQHWNYPLTFGAGTKLELK
# notes: also called Mouse 32A10; Parental antibody (Mouse 32A10)
# How the values were obtained:
# [1] = molecular target: T1, recombinant histidine-tagged canine …; assay: cell-based or functional assay
# [2] = molecular target: T1, recombinant histidine-tagged canine …; assay: ELISA, His-tagged cIL-13 on nickel-coated plate
# Experimental: In one embodiment of the present disclosure, recombinant canine IL-13 (cIL-13) protein with a histidine tag was dispensed onto nickel-coated plates (Thermo Fisher, #15442) at 100 ng/100 μL per well and incubated at room temperature for 1 hour. The plates were then washed three times with 1×PBST, and serial dilutions of the chimeric antibodies in 1×PBS were added and incubated at room temperature for 1 hour to allow antigen-antibody binding. After three washes with 1×PBST, an HRP-conjugated secondary antibody that cross-reacts with canine antibodies was diluted 1:100 in casein buffer and added at 100 μL per well, followed by incubation at 37° C. for 30 minutes. The HRP-conjugated secondary antibody used may be Jackson ImmunoResearch, #115-036-071, and the casein buffer may be Thermo Fisher Scientific, #37528; however, these examples are not intended to limit the scope of the present disclosure. After another three washes with 1×PBST, TMB was added to initiate color development, and the reaction was terminated by the addition of an equal volume of 1.0 N sulfuric acid.
# [3] = molecular target: T1, recombinant histidine-tagged canine …; assay: cell-based or functional assay; remark: listed apart in the source
# [4] = molecular target: T1, recombinant histidine-tagged canine …; assay: ELISA, cIL-13-coated plate
# [5] = molecular target: T1, recombinant histidine-tagged canine …; assay: cell-based or functional assay; remark: listed apart in the source
binder,measurement,setting,value
B1,TF-1 cell proliferation inhibition IC50 (Average),[1],437 ng/ml and 2.91 nM
same,TF-1 cell proliferation inhibition IC50 (Test 1),[1],494 ng/ml and 3.29 nM
same,TF-1 cell proliferation inhibition IC50 (Test 2),[1],492 ng/ml and 3.28 nM
same,TF-1 cell proliferation inhibition IC50 (Test 3),[1],325 ng/ml and 2.17 nM
same,EC50,[2],0.218 µg/mL and 1.45 nM
same,"inhibition of IL-13-dependent TF-1 cell proliferation, IC50",[3],2.9 to 4.2 nM
same,EC50,[4],0.0694 µg/mL and 0.463 nM
same,Inhibitory Activity on TF-1 Cell Proliferation IC50,[5],3.97 nM
